Source: article PMC8761494, “Structural basis of Nrd1–Nab3 heterodimerization” (Life Science Alliance, 2022)
Values joined by “and” are separate entries in the source; they are usually repeats but may differ in a detail not shown here. Equal values may be shown once. Read-outs that look alike come from different tables or passages of the source.

T1: Nrd1 part (residues 158-222) of the Nrd1_(158-222)-Nab3_(202-261) chimera (S. cerevisiae, UniProt P53617 158-222)
T1 construct: also called Nrd1 segment of the Nrd1–Nab3 chimera; source: E. coli BL21(DE3), purified (IMAC, TEV digestion, second IMAC, gel filtration); not shown: TxA (E. coli thioredoxin A), N-terminal, cleaved; His6, N-terminal, cleaved
T1 sequence (looked up): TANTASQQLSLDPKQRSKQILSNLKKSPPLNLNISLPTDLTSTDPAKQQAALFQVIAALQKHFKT

T2: Nrd1_(147-222/290-489) (S. cerevisiae, UniProt P53617 147-489, lacking residues 223–289)
T2 sequence: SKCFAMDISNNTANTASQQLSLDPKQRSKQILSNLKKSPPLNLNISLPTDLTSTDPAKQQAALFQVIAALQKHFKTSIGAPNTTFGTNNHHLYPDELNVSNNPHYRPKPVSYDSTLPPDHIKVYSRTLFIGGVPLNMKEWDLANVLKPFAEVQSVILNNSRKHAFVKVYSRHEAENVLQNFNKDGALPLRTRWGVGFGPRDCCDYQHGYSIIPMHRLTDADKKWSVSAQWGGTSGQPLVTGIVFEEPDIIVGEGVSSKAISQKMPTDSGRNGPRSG

T3: Nrd1_(1-222) (S. cerevisiae, UniProt P53617 1-222)
T3 chain: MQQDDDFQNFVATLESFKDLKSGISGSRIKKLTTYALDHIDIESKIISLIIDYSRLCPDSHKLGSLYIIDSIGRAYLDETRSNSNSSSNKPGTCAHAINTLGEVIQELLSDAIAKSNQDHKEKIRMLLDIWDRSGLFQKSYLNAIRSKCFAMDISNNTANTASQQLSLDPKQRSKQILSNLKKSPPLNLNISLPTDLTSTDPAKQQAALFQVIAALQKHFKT

T4: txA-HTEV-Nrd1_(147-222) NAID (S. cerevisiae, UniProt P53617 147-222)
T4 chain: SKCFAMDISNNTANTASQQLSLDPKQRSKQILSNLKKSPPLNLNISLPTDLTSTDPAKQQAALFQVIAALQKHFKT

T5: Nrd1_(147-222/290-489) (S. cerevisiae, UniProt P53617 147-489, lacking residues 223–289)
T5 construct: no linker is mentioned; source: E. coli BL21(DE3), purified (IMAC, TEV digestion, second IMAC, gel filtration); not shown: TxA (E. coli thioredoxin A), N-terminal, cleaved; His6, N-terminal, cleaved
T5 sequence (looked up): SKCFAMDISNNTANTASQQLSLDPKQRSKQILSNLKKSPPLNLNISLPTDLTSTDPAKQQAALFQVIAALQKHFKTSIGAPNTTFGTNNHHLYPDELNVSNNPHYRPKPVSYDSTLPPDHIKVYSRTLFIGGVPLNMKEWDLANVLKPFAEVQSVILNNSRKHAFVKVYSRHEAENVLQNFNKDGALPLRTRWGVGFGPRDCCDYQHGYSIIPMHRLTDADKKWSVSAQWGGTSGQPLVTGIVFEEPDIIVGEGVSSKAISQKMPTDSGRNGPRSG

T6: Nrd1_(1-222) (S. cerevisiae, UniProt P53617 1-222)
T6 construct: also called Nrd1 construct including the CID and NAID; source: E. coli BL21(DE3), purified (IMAC, TEV digestion, second IMAC, gel filtration); not shown: TxA (E. coli thioredoxin A), N-terminal, cleaved; His6, N-terminal, cleaved
T6 sequence (looked up): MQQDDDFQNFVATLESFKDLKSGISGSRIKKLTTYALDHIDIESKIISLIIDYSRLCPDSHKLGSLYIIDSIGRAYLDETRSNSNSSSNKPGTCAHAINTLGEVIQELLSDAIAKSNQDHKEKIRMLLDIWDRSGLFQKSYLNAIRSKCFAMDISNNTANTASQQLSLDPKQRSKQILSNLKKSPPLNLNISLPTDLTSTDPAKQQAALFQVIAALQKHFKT


Columns and labels:
[1] = target: T1, Nrd1 part (residues 158-222) of the …; assay: NMR structure; the two stretches joined on one chain (chimera Nrd1_(158-222)-Nab3_(202-261)); 10 mM sodium acetate pH 5.1, 25 mM NaCl, 1 mM DTT, 25°C, ~1 mM protein; settings: both partners purified
Nrd1_(147-222/290-489) [2] = target: T2, Nrd1_(147-222/290-489); assay: ITC
Nrd1_(1-222) [3] = target: T3, Nrd1_(1-222); assay: ITC
[4] = target: T4, txA-HTEV-Nrd1_(147-222) NAID; assay: ITC
Nrd1_(147-222/290-489) [5] = target: T2, Nrd1_(147-222/290-489); assay: ITC; remark: listed apart in the source
Nrd1_(1-222) [6] = target: T3, Nrd1_(1-222); assay: ITC
Nrd1_(147-222/290-489) [7] = target: T5, Nrd1_(147-222/290-489); assay: ITC; Nab3_(191-261) (198 μM) in the syringe titrated into Nrd1 variants in the cell (19-54 μM); 15°C; 20 mM potassium phosphate pH 7.0, 150 mM NaCl, 1 mM β-mercaptoethanol; one-site binding model; duplicates; settings: both partners purified
Nrd1_(1-222) [8] = target: T6, Nrd1_(1-222); assay: as above; settings: both partners purified
[9] = target: T4, txA-HTEV-Nrd1_(147-222) NAID; assay: ITC
Nrd1_(147-222/290-489) [10] = target: T2, Nrd1_(147-222/290-489); assay: ITC; remark: listed apart in the source
Nrd1_(1-222) [11] = target: T3, Nrd1_(1-222); assay: ITC

Row | Binder | binding result [1] | Kd (Nrd1_(147-222/290-489) [2]) [nM] | Kd (Nrd1_(1-222) [3]) [nM] | Ka [4] | Ka (Nrd1_(147-222/290-489) [5]) [M⁻¹] | Ka (Nrd1_(1-222) [6]) [M⁻¹] | fold tighter binding than with Nrd1_(1-222) (Nrd1_(147-222/290-489) [7]) [fold] | stoichiometry N (Nrd1_(1-222) [8]) | Kd [9] | Kd (Nrd1_(147-222/290-489) [10]) [nM] | Kd (Nrd1_(1-222) [11]) [nM]
1 | Nab3 part (residues 202-261) of the Nrd1_(158-222)-Nab3_(202-261) chimera (domain or fragment, S. cerevisiae, UniProt P38996 202-261, looked up, Nab3, S. cerevisiae, residues 202-261; also called Nab3 segment of the Nrd1–Nab3 chimera; source: E. coli BL21(DE3), purified (IMAC, TEV digestion, second IMAC, gel filtration)) NMENVNYDLLQKQVKYIMDSNMLNLPQFQHLPQEEKMSAILAMLNSNSDTALSVPPHDST | binds | – | – | – | – | – | – | – | – | – | –
2 | Nrd1 interaction domain of Nab3 (Nab3 191-261) (domain or fragment, S. cerevisiae, UniProt P38996 191-261, looked up, 15N/13C-labelled or unlabelled for NMR; natural abundance for ITC; also called NRID; Nab3 NRID; source: E. coli BL21(DE3), purified (IMAC, TEV digestion, second IMAC, gel filtration); not shown: TxA (E. coli thioredoxin A), N-terminal, cleaved; His6, N-terminal, cleaved) REENDNTHFPTNMENVNYDLLQKQVKYIMDSNMLNLPQFQHLPQEEKMSAILAMLNSNSDTALSVPPHDST | – | 36 | 130 | 4.06e+07 M⁻¹ and 4.34e+07 M⁻¹ | 4.97e+07 | 7.22e+06 | ~4 | 0.4 | 23 nM and 25 nM | 20 | 140
